Measurements taken from US20230220035A1 (DONG-A ST CO., LTD., published 2023).
*1 amine or outer side, *2 acyl side, *3 side chain or, on linkers, in order; H or OH if unused. Side-chain parts run from the residue outwards. [ ]: non-standard residue; d: D form. The star is where a group is joined. C18 diacid = O=C(O)CCCCCCCCCCCCCCCCC(=O)*; γGlu = O=C(O)[C@H](CCC(=O)[*:2])N[*:1]; Stearoyl = CCCCCCCCCCCCCCCCCC(=O)*; Palmitoyl = CCCCCCCCCCCCCCCC(=O)*; AEEA = NCCOCCOCC(=O)O; Aib = CC(C)(N)C(=O)O

B1: Comparative Example Compound 12 (peptide)
peptide: H-H[Aib]QGTFTSDK([AEEA-AEEA-γGlu-Stearoyl])SKYLD[Aib]RRAQDFVQWLMNTKEYEK([AEEA-AEEA-AEEA-Palmitoyl])EYE-OH
SMILES: CCCCCCCCCCCCCCCCCC(=O)N[C@@H](CCC(=O)NCCOCCOCC(=O)NCCOCCOCC(=O)NCCCC[C@H](NC(=O)[C@H](CC(=O)O)NC(=O)[C@H](CO)NC(=O)[C@@H](NC(=O)[C@H](Cc1ccccc1)NC(=O)[C@@H](NC(=O)CNC(=O)[C@H](CCC(N)=O)NC(=O)C(C)(C)NC(=O)[C@@H](N)Cc1c[nH]cn1)[C@@H](C)O)[C@@H](C)O)C(=O)N[C@@H](CO)C(=O)N[C@@H](CCCCN)C(=O)N[C@@H](Cc1ccc(O)cc1)C(=O)N[C@@H](CC(C)C)C(=O)N[C@@H](CC(=O)O)C(=O)NC(C)(C)C(=O)N[C@@H](CCCNC(=N)N)C(=O)N[C@@H](CCCNC(=N)N)C(=O)N[C@@H](C)C(=O)N[C@@H](CCC(N)=O)C(=O)N[C@@H](CC(=O)O)C(=O)N[C@@H](Cc1ccccc1)C(=O)N[C@H](C(=O)N[C@@H](CCC(N)=O)C(=O)N[C@@H](Cc1c[nH]c2ccccc12)C(=O)N[C@@H](CC(C)C)C(=O)N[C@@H](CCSC)C(=O)N[C@@H](CC(N)=O)C(=O)N[C@H](C(=O)N[C@@H](CCCCN)C(=O)N[C@@H](CCC(=O)O)C(=O)N[C@@H](Cc1ccc(O)cc1)C(=O)N[C@@H](CCC(=O)O)C(=O)N[C@@H](CCCCNC(=O)COCCOCCNC(=O)COCCOCCNC(=O)COCCOCCNC(=O)CCCCCCCCCCCCCCC)C(=O)N[C@@H](CCC(=O)O)C(=O)N[C@@H](Cc1ccc(O)cc1)C(=O)N[C@@H](CCC(=O)O)C(=O)O)[C@@H](C)O)C(C)C)C(=O)O
B2: Compound 2 (peptide)
peptide: H-H[Aib]QGTFTSDK([AEEA-AEEA-γGlu-Stearoyl])SKYLD[Aib]RRAQDFVQWLMNTKEYEK(15‑carboxy‑1‑oxopentadecyl)EYE-OH
B3: Compound 5 (peptide)
peptide: H-H[Aib]QGTFTSDK([AEEA-AEEA-γGlu-Stearoyl])SKYLD[Aib]RRAQDFVQWLMNTKEYEK([AEEA-AEEA-AEEA-γGlu-C18 diacid])EYE-OH
SMILES: CCCCCCCCCCCCCCCCCC(=O)N[C@@H](CCC(=O)NCCOCCOCC(=O)NCCOCCOCC(=O)NCCCC[C@H](NC(=O)[C@H](CC(=O)O)NC(=O)[C@H](CO)NC(=O)[C@@H](NC(=O)[C@H](Cc1ccccc1)NC(=O)[C@@H](NC(=O)CNC(=O)[C@H](CCC(N)=O)NC(=O)C(C)(C)NC(=O)[C@@H](N)Cc1c[nH]cn1)[C@@H](C)O)[C@@H](C)O)C(=O)N[C@@H](CO)C(=O)N[C@@H](CCCCN)C(=O)N[C@@H](Cc1ccc(O)cc1)C(=O)N[C@@H](CC(C)C)C(=O)N[C@@H](CC(=O)O)C(=O)NC(C)(C)C(=O)N[C@@H](CCCNC(=N)N)C(=O)N[C@@H](CCCNC(=N)N)C(=O)N[C@@H](C)C(=O)N[C@@H](CCC(N)=O)C(=O)N[C@@H](CC(=O)O)C(=O)N[C@@H](Cc1ccccc1)C(=O)N[C@H](C(=O)N[C@@H](CCC(N)=O)C(=O)N[C@@H](Cc1c[nH]c2ccccc12)C(=O)N[C@@H](CC(C)C)C(=O)N[C@@H](CCSC)C(=O)N[C@@H](CC(N)=O)C(=O)N[C@H](C(=O)N[C@@H](CCCCN)C(=O)N[C@@H](CCC(=O)O)C(=O)N[C@@H](Cc1ccc(O)cc1)C(=O)N[C@@H](CCC(=O)O)C(=O)N[C@@H](CCCCNC(=O)COCCOCCNC(=O)COCCOCCNC(=O)COCCOCCNC(=O)CC[C@H](NC(=O)CCCCCCCCCCCCCCCCC(=O)O)C(=O)O)C(=O)N[C@@H](CCC(=O)O)C(=O)N[C@@H](Cc1ccc(O)cc1)C(=O)N[C@@H](CCC(=O)O)C(=O)O)[C@@H](C)O)C(C)C)C(=O)O
B4: Comparative Example Compound 11 (peptide)
peptide: H-H[Aib]QGTFTSDK([AEEA-AEEA-γGlu-Stearoyl])SKYLD[Aib]RRAQDFVQWLMNTKEYEK(15‑aminocarboxy‑1‑oxopentadecyl)EYE-OH
B5: Compound 7 (peptide)
peptide: H-H[Aib]QGTFTSDK([AEEA-AEEA-γGlu-Stearoyl])SKYLD[Aib]RRAQDFVQWLMNTKEYEK(17‑aminocarboxy‑1‑oxoheptadecyl)EYE-OH
B6: Comparative Example Compound 9 (peptide)
peptide: H-H[Aib]QGTFTSDK([AEEA-AEEA-γGlu-Stearoyl])SKYLD[Aib]RRAQDFVQWLMNTKEYEK(Palmitoyl)EYE-OH
SMILES: CCCCCCCCCCCCCCCCCC(=O)N[C@@H](CCC(=O)NCCOCCOCC(=O)NCCOCCOCC(=O)NCCCC[C@H](NC(=O)[C@H](CC(=O)O)NC(=O)[C@H](CO)NC(=O)[C@@H](NC(=O)[C@H](Cc1ccccc1)NC(=O)[C@@H](NC(=O)CNC(=O)[C@H](CCC(N)=O)NC(=O)C(C)(C)NC(=O)[C@@H](N)Cc1c[nH]cn1)[C@@H](C)O)[C@@H](C)O)C(=O)N[C@@H](CO)C(=O)N[C@@H](CCCCN)C(=O)N[C@@H](Cc1ccc(O)cc1)C(=O)N[C@@H](CC(C)C)C(=O)N[C@@H](CC(=O)O)C(=O)NC(C)(C)C(=O)N[C@@H](CCCNC(=N)N)C(=O)N[C@@H](CCCNC(=N)N)C(=O)N[C@@H](C)C(=O)N[C@@H](CCC(N)=O)C(=O)N[C@@H](CC(=O)O)C(=O)N[C@@H](Cc1ccccc1)C(=O)N[C@H](C(=O)N[C@@H](CCC(N)=O)C(=O)N[C@@H](Cc1c[nH]c2ccccc12)C(=O)N[C@@H](CC(C)C)C(=O)N[C@@H](CCSC)C(=O)N[C@@H](CC(N)=O)C(=O)N[C@H](C(=O)N[C@@H](CCCCN)C(=O)N[C@@H](CCC(=O)O)C(=O)N[C@@H](Cc1ccc(O)cc1)C(=O)N[C@@H](CCC(=O)O)C(=O)N[C@@H](CCCCNC(=O)CCCCCCCCCCCCCCC)C(=O)N[C@@H](CCC(=O)O)C(=O)N[C@@H](Cc1ccc(O)cc1)C(=O)N[C@@H](CCC(=O)O)C(=O)O)[C@@H](C)O)C(C)C)C(=O)O
B7: Comparative Example Compound 10 (peptide)
peptide: H-H[Aib]QGTFTSDK([AEEA-AEEA-γGlu-Stearoyl])SKYLD[Aib]RRAQDFVQWLMNTKEYEK(13‑aminocarboxy‑1‑oxotridecyl)EYE-OH
B8: Comparative Example Compound 8 (peptide)
peptide: H-H[Aib]QGTFTSDK([AEEA-AEEA-γGlu-Stearoyl])SKYLD[Aib]RRAQDFVQWLMNTK-OH
SMILES: CCCCCCCCCCCCCCCCCC(=O)N[C@@H](CCC(=O)NCCOCCOCC(=O)NCCOCCOCC(=O)NCCCC[C@H](NC(=O)[C@H](CC(=O)O)NC(=O)[C@H](CO)NC(=O)[C@@H](NC(=O)[C@H](Cc1ccccc1)NC(=O)[C@@H](NC(=O)CNC(=O)[C@H](CCC(N)=O)NC(=O)C(C)(C)NC(=O)[C@@H](N)Cc1c[nH]cn1)[C@@H](C)O)[C@@H](C)O)C(=O)N[C@@H](CO)C(=O)N[C@@H](CCCCN)C(=O)N[C@@H](Cc1ccc(O)cc1)C(=O)N[C@@H](CC(C)C)C(=O)N[C@@H](CC(=O)O)C(=O)NC(C)(C)C(=O)N[C@@H](CCCNC(=N)N)C(=O)N[C@@H](CCCNC(=N)N)C(=O)N[C@@H](C)C(=O)N[C@@H](CCC(N)=O)C(=O)N[C@@H](CC(=O)O)C(=O)N[C@@H](Cc1ccccc1)C(=O)N[C@H](C(=O)N[C@@H](CCC(N)=O)C(=O)N[C@@H](Cc1c[nH]c2ccccc12)C(=O)N[C@@H](CC(C)C)C(=O)N[C@@H](CCSC)C(=O)N[C@@H](CC(N)=O)C(=O)N[C@H](C(=O)N[C@@H](CCCCN)C(=O)O)[C@@H](C)O)C(C)C)C(=O)O
B9: Compound 6 (peptide)
peptide: H-H[Aib]QGTFTSDK([AEEA-AEEA-γGlu-Stearoyl])SKYLD[Aib]RRAQDFVQWLMNTKEYEK([Lys-AEEA-AEEA-AEEA-γGlu-C18 diacid])EYE-OH

Tests used:
[1] = molecular target: Human GLP-1 receptor (human, UniProt P43220); experiment: cell-based or functional assay
[2] = molecular target: Human glucagon receptor (human, UniProt P47871); experiment: cell-based or functional assay

Binder	EC50 [1] [nM]	Maximum activation (% vs GLP-1) [1] [%]	EC50 [2] [nM]	Maximum activation (% vs GCG) [2] [%]
B1	< 0.1	102	< 0.1	89.6
B2		104		100
B3		93.6		99.4
B4	< 0.1	92.8	< 0.1	98.5
B5	< 0.1	90.8	< 0.1	100
B6		70.4		73.3
B7	< 0.1	105	< 0.1	110
B8	< 0.1	99.3	< 0.1	103
B9		83.8		89.1
